In paper doi:10.1101/2020.07.16.20155853:

Target: SARS-CoV-2 Cys-like protease (Mpro) (SARS-CoV-2 (Wuhan-Hu-1 strain))
Test: SEC

## SARS-CoV-2 Cys-like protease (Mpro) (enzyme)
  stoichiometry N: 2
